Tests used:
Experiment in all cases: NMR chemical shift titration
[1] = target: T1, CCR7 N-terminus peptide 2-30 (Homo sapiens, UniProt P32248)
T1 chain: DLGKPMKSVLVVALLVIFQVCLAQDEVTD

[2] = target: PSGL-1 N-terminus peptide 1-15 (Homo sapiens, UniProt Q14242, N-terminal pyroglutamate)
[3] = target: T2, PSGL-1 N-terminus peptide 2-15 (Homo sapiens, UniProt Q14242)
T2 chain: PLQLLLLLILLGPG

[4] = target: T3, CCR7 N-terminus peptide 1-30 (Homo sapiens, UniProt P32248)
T3 chain: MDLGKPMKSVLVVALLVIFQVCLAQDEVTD

- Kd [1]: 12 µM
- Kd [2]: 20 µM
- Kd [3]: 18 µM
- Kd [4]: 52 µM
B1: CCL19 (protein)
chain: GTNDAEDCCLSVTQKPIPGYIVRNFHYLLIKDGCRVPAVVFTTLRGRQLCAPPDQPWVERIIQRLQRTSAKMKRRSS

Reference: PMC4809050 (2016)
